Data on one molecule can be found in patent US20090297503A1 (Chugai, published 2009).

The target in experiment [1] is T1, Factor VIII heavy chain (human, UniProt P00451 20-1667, limits assumed).
T1 construct: only the heavy chain part stood in the assay; also called HCh
The experiment in a line: ELISA: Factor VIII heavy chain (50 nM) coated on microtiter wells, biotinylated moAb216 added, detected with peroxidase-conjugated streptavidin, absorbance at 492 nm. The procedure: (§1) Microtiter wells were coated with Factor VIII or its subunit (50 nM) in 20 mM Tris, and 0.15 M NaCl, pH 7.4, overnight at 4° C. The wells were washed with PBS containing 0.01% Tween 20 and were blocked with PBS containing 5% HSA for two hours at 37° C. The indicated concentrations of biotinylated-moAb216 were then added in 20 mM HEPES, 0.1 M NaCl, 5 mM CaCl₂, and 0.01% Tween 20, pH 7.2 (HBS-buffer) containing 1% HSA for two hours at 37° C. Bound IgG was quantified by the addition of peroxidase-conjugated streptavidin and O-phenylenediamine dihydrochloride substrate. Reactions were stopped by the addition of 2 M H₂SO₄, and absorbance was measured at 492 nm. The amount of nonspecific binding of anti-mouse peroxidase-conjugated IgG in the absence of moAb216 was <5% of the total signal. Specific binding was recorded after subtracting the nonspecific binding.

The next experiment has as its target T2, Factor VIII A1 subunit (human, UniProt P00451 20-391).
T2 construct: only the A1 subunit stood in the assay; also called A1 domain
T2 sequence: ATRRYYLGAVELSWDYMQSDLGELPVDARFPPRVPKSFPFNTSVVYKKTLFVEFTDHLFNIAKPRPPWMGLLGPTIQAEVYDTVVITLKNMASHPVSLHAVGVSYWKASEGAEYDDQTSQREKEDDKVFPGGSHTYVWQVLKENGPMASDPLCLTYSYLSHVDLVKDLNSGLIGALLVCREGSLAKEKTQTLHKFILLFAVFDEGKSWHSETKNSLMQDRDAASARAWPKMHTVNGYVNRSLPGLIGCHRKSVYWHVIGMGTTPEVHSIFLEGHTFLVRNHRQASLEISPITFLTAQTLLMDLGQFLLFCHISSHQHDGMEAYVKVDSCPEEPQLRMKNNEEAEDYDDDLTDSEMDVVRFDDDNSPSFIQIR
The experiment in a line: ELISA: Factor VIII A1 subunit (50 nM) coated on microtiter wells, biotinylated moAb216 added, detected with peroxidase-conjugated streptavidin, absorbance at 492 nm. The procedure:
as §1

Experiment [2] addresses T3, recombinant human blood coagulation Factor VIII (Kogenate FS) (human, UniProt P00451 20-2351).
T3 construct: The background describes the protein as a heavy chain/light chain heterodimer and numbers 2,332 residues; the entry may also carry the signal peptide; also called F.VIII
The experiment in a line: SPR (BIAcore X), moAb216 coupled to CM5 chip, Factor VIII in flow, 37 C. The procedure:
(§2) The kinetics of moAb216 interaction with Factor VIII was determined by SPR-based assay using a BIAcore X instrument (Biacore AB, Uppsala, Sweden) as previously reported. moAb216 was covalently coupled to the surface of CM5 chip at a coupling density of up to 5 ng/mm². Binding (association) of the ligand was monitored in the running buffer (10 mM HEPES pH 7.4, 0.1 M NaCl, 1 mM CaCl₂, 0.005% polysorbate 20) for two minutes at a flow rate 20 μl/min. The dissociation of bound ligand was recorded over a two-minute period by replacing the ligand-containing buffer with buffer only. The level of nonspecific binding as a result of ligand binding to the uncoated chip was subtracted from the signal. Reactions were performed at 37° C. The rate constants for association (kₐₛₛₒ) and dissociation (kdiss) were determined by nonlinear regression analysis using the evaluation software provided by Biacore AB. The dissociation constant (Kd) was calculated as kdiss/kₐₛₛₒ.
(§3) Reactions were performed as described under “Materials and Methods”. Parameter values were calculated by nonlinear regression analysis using the evaluation software provided by Biacore AB. ^{#}Values were calculated as kdiss/kₐₛₛₒ. *not determined

The target of experiment [3] is T1, Factor VIII heavy chain. The experiment in a line: SPR (BIAcore X), moAb216 coupled to CM5 chip, heavy chain in flow, 37 C; calculated as kdiss/kasso. The procedure: as §2, §3
The next experiment addresses T4, Factor VIII light chain (human, UniProt P00451 1668-2351).
T4 construct: only the light chain part stood in the assay; also called LCh
T4 sequence: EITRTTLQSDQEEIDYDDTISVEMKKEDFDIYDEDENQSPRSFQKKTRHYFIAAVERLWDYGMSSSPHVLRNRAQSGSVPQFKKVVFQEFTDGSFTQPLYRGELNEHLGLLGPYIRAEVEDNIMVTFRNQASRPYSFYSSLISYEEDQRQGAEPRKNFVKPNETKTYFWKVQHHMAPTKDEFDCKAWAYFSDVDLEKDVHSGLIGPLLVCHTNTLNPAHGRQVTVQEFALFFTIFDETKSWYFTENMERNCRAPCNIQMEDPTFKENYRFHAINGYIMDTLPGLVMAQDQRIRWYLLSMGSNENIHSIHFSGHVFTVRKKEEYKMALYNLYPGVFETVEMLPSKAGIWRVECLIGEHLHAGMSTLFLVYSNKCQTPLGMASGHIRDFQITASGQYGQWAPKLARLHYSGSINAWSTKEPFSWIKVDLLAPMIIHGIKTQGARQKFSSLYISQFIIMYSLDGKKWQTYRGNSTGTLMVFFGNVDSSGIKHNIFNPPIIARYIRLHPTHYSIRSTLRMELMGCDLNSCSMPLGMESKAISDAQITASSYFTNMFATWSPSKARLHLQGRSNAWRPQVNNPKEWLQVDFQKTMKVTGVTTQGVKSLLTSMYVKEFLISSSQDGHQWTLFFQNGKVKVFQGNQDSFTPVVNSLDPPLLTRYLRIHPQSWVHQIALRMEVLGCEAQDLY
In words: ELISA: Factor VIII light chain (50 nM) coated on microtiter wells, biotinylated moAb216 added, detected with peroxidase-conjugated streptavidin, absorbance at 492 nm. The procedure:
as §1

In experiment [4] the target is T5, Factor VIII A2 subunit (human, UniProt P00451 392-759).
T5 construct: only the A2 subunit stood in the assay; also called A2 domain
T5 sequence: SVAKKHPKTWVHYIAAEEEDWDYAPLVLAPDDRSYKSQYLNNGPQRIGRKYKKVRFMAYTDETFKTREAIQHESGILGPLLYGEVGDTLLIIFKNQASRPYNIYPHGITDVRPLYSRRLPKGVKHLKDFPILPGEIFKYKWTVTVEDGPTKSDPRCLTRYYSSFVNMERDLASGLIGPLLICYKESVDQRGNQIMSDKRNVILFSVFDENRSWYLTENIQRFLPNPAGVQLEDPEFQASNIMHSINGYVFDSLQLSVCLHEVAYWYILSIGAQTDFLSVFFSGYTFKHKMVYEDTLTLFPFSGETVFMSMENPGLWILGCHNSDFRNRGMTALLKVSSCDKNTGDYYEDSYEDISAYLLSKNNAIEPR
The experiment in a line: SPR (BIAcore X), moAb216 coupled to CM5 chip, A2 in flow, 37 C; calculated as kdiss/kasso. The procedure:
as §2, §3

The target of experiment [5] is T1, Factor VIII heavy chain. The experiment in a line: SPR (BIAcore X), moAb216 coupled to CM5 chip, heavy chain in flow, 37 C. The procedure: as §2, §3
Experiment [6] concerns the target T3, recombinant human blood coagulation …. In words: SPR (BIAcore X), moAb216 coupled to CM5 chip, Factor VIII in flow, 37 C; calculated as kdiss/kasso. The procedure: as §2, §3
Experiment [7] has the same target. The experiment in a line: cell-based or functional assay.
For experiment [8] the target is unchanged. In words: ELISA: Factor VIII (50 nM) coated on microtiter wells, biotinylated moAb216 added, detected with peroxidase-conjugated streptavidin, absorbance at 492 nm. The procedure: as §1
The target of experiment [9] is T5, Factor VIII A2 subunit. The experiment in a line: SPR (BIAcore X), moAb216 coupled to CM5 chip, A2 in flow, 37 C. The procedure:
as §2, §3

B1: anti-Factor VIII monoclonal antibody moAb216 (antibody, V domains shown)
VH: EVRLVESGGGLVKPGGSLKLSCAASEFTFSSYSMSWVRQTPEKRLEWVASINSGGRTFYPDSVKGRFTISRDNARNILVLQMSSLRSEDTAMYYCARVIYYDYGAYALDYWGQGTSLTVSS
VL: EIVLTQSPALMAAYPGEKVTITCSVSSSISSSNLHWYQQKSETSPKLWIYGTSNLASGVPVRFSGSGSGTSYSLTISSMEAEDAATYYCQQWNIYPLTFGAGTKLELK
notes: It was biotinylated for the ELISAs and coupled covalently to a CM5 chip for SPR; also called moAb216 IgG; biotinylated moAb216
As for B1, the “EC50 (read off the curve)” value is ~0.09 µg/mL with Factor VIII heavy chain [1] and ~0.08 µg/mL in experiment [8]. The binding result in the experiment with Factor VIII A1 subunit and with Factor VIII light chain was “no binding (tested: 1.25 µg/ml)” in each case. The results for the koff (in [2]; with Factor VIII heavy chain [5]; in the experiment with Factor VIII A2 subunit [9]) were 0.001 s⁻¹, 0.0009 s⁻¹ and 0.0002 s⁻¹, respectively. Moreover, the kon came out at 930000 M⁻¹ s⁻¹ in experiment [2], 294000 M⁻¹ s⁻¹ with Factor VIII heavy chain [5] and 238000 M⁻¹ s⁻¹ with Factor VIII A2 subunit [9]. For the same molecule, the figures for the Kd (in the experiment with Factor VIII heavy chain [3]; with Factor VIII A2 subunit [4]; in experiment [6]) were 3 nM, 0.8 nM and 1.1 nM, respectively. Further, the “percentage of Factor Xa cleavage at Arg372 (A2/A1-A2 ratio, densitometry)” value in experiment [7] was ≤ 2 times. In [7], the “rate of thrombin cleavage at Arg372 (A2 product/A1-A2 substrate ratio, densitometry of Western blot)” value was ~2 times.
